{"source": "paper PMC5958903", "target": "brain-derived neurotrophic factor", "experiment": "native gel or EMSA"}
{"substance": "soluble, recombinant extracellular domain of tropomyosin receptor kinase B (from UniProt Q16620 32-430)", "values": [{"measurement": "stoichiometry N (TrkB per BDNF dimer)", "result": 1}]}
